Consider two molecules from patent publication EP4803550A1 (Yantai Patronus Biotech Co., Ltd., dated 2026).

The target of the assay is T1, NPM-4C (binding peptide 2-NPM fusion protein).
T1 construct: Self-assembling nanoparticle protein expressed in E. coli; also called particle protein component; VLP carrier NPM-4C
The assay can be described thus: covalent binding reaction (4T/4C) with NPM-4C at 22 °C for 24 h, SEC purification, SDS-PAGE.

B1: RD012-1 (fHBP V3 domain 1-fHBP V1 domain 2-(G)-fHBP V1 domain 1-fHBP V2 domain 2-(GSG)2-4T-His) (other)
chain: SSGSGSGGGGVAADIGTGLADALTAPLDHKDKGLKSLTLEDSISQNGTLTLSAQGAEKTFKVGDKDNSLNTGKLKNDKISRFDFVQKIEVDGQTITLASGEFQIYKQDHSAVVALQIEKINNPDKIDSLINQRSFLVSGLGGEHTSFDKLPKDVMATYRGTAFGSDDAGGKLTYTIDFAAKQGHGKIEHLKSPELNVDLAVAYIKPDEKHHAVISGSVLYNQDEKGSYSLGIFGEKAQEVAGSAEVETANGIHHIGLAAKQGSSGGGGSGGGGVTADIGTGLADALTAPLDHKDKGLKSLTLEDSISQNGTLTLSAQGAEKTYGNGDSLNTGKLKNDKVSRFDFIRQIEVDGQLITLESGEFQVYKQSHSALTALQTEQEQDPEHSEKMVAKRRFRIGDIAGEHTAFNQLPDGKAEYHGKAFSSDDAGGKLTYTIDFAAKQGHGKIEHLKTPEQNVELAAAELKADEKSHAVILGDTRYGSEEKGTYHLALFGDRAQEIAGSATVKIGEKVHEIGIAGKQGSGGSGAHIVMVDAYKPTKHHHHHH
notes: Expressed in E. coli BL21(DE3), purified by His-trap and SEC; also called RD012-1 fusion protein; MenB antigen
In the case of B1, the binding result is recorded as “binds”.

B2: RD012-2 (fHBP V3 domain 1-fHBP V1 domain 2-fHBP V1 domain 1T1-fHBP V2 domain 2-(GSG)2-4T-His) (other)
chain: SSGSGSGGGGVAADIGTGLADALTAPLDHKDKGLKSLTLEDSISQNGTLTLSAQGAEKTFKVGDKDNSLNTGKLKNDKISRFDFVQKIEVDGQTITLASGEFQIYKQDHSAVVALQIEKINNPDKIDSLINQRSFLVSGLGGEHTSFDKLPKDVMATYRGTAFGSDDAGGKLTYTIDFAAKQGHGKIEHLKSPELNVDLAVAYIKPDEKHHAVISGSVLYNQDEKGSYSLGIFGEKAQEVAGSAEVETANGIHHIGLAAKQGSGGGGVTADIGTGLADALTAPLDHKDKGLKSLTLEDSISQNGTLTLSAQGAEKTYGNGDSLNTGKLKNDKVSRFDFIRQIEVDGQLITLESGEFQVYKQSHSALTALQTEQEQDPEHSEKMVAKRRFRIGDIAGEHTAFNQLPDGKAEYHGKAFSSDDAGGKLTYTIDFAAKQGHGKIEHLKTPEQNVELAAAELKADEKSHAVILGDTRYGSEEKGTYHLALFGDRAQEIAGSATVKIGEKVHEIGIAGKQGSGGSGAHIVMVDAYKPTKHHHHHH
notes: Expressed in E. coli BL21(DE3), purified by His-trap and SEC; also called RD012-2 fusion protein; MenB antigen
On to B2, for which the binding result was “binds”.
